Measured values reported in the supplement of paper PMC10567573.

B1: TRIM39 (parent)
chain: YPCVLATEGFTSGRHYWEVEVGDK

Variants of: B1
Test: protein stability index of a GFP-peptide fusion (GPS, HEK-293T) (PSI 1-6); higher = more stable
Details: c terminus: a fixed tail appended
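Further: lentivirally expressed fusions sorted by FACS into six bins by GFP to DsRed ratio, PSI derived from sequencing read proportions per bin multiplied by bin number.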

Variant | protein stability index
YPCVLCTEGFTSGRHYWEVEVGDK [A6C] | 1.44
YPCVLYTEGFTSGRHYWEVEVGDK [A6Y] | 1.43
YPCVLPTEGFTSGRHYWEVEVGDK [A6P] | 1.75
YPCVLQTEGFTSGRHYWEVEVGDK [A6Q] | 2.47
YPCVLKTEGFTSGRHYWEVEVGDK [A6K] | 1.59
YPCVLFTEGFTSGRHYWEVEVGDK [A6F] | 1.27
YPCVLTTEGFTSGRHYWEVEVGDK [A6T] | 3
YPCVLATEGFTSGPHYWEVEVGDK [R14P] | 2.32
YPCVLATEGFTSGLHYWEVEVGDK [R14L] | 2.45
YPCVLATEGFTSGIHYWEVEVGDK [R14I] | 2.17
YPCVLATEGFTSGMHYWEVEVGDK [R14M] | 1.66
YPCVLATEGFTSGCHYWEVEVGDK [R14C] | 1.79
YPCVLATEGFTSGSHYWEVEVGDK [R14S] | 2.07
YPCVLATEGFLSGRHYWEVEVGDK [T11L] | 1.89
YPCVLATEGFHSGRHYWEVEVGDK [T11H] | 1.71
YPCVLATEGFCSGRHYWEVEVGDK [T11C] | 1.73
YPCVLATEGFRSGRHYWEVEVGDK [T11R] | 2.82
YPCVLATEGFTSYRHYWEVEVGDK [G13Y] | 1.2
YPCVLATEGFTSSRHYWEVEVGDK [G13S] | 2.03
YPCVLATEGFTSWRHYWEVEVGDK [G13W] | 1.47
YPCVLACEGFTSGRHYWEVEVGDK [T7C] | 1.84
YPCVLAAEGFTSGRHYWEVEVGDK [T7A] | 2.27
YPCVLANEGFTSGRHYWEVEVGDK [T7N] | 2.45
YPCVLAQEGFTSGRHYWEVEVGDK [T7Q] | 1.56

Variant | protein stability index
YPCVLASEGFTSGRHYWEVEVGDK [T7S] | 1.57
YPCVLAFEGFTSGRHYWEVEVGDK [T7F] | 2.32
YPCVLAEEGFTSGRHYWEVEVGDK [T7E] | 2.16
YPCVLATEGFTSGRHYWEVFVGDK [E20F] | 1.93
YPCVLATEGFTSGRHYWEVNVGDK [E20N] | 2.06
YPCVLATEGFTSGRHYWEVIVGDK [E20I] | 1.96
YPCVLATEGFTSGRHYWEVCVGDK [E20C] | 2.73
YPCVLATEGFTSGRHYWEVGVGDK [E20G] | 3.06
YPCVLATEGFTSGRHYWEVYVGDK [E20Y] | 1.96
YPCVLATEGFTSGRHYWEVRVGDK [E20R] | 3.35
YPCVLATEGFTSGRHYWEVAVGDK [E20A] | 2.14
YPCVLATHGFTSGRHYWEVEVGDK [E8H] | 1.93
YPCVLATGGFTSGRHYWEVEVGDK [E8G] | 2.09
YPCVLATPGFTSGRHYWEVEVGDK [E8P] | 1.62
YPCVLATVGFTSGRHYWEVEVGDK [E8V] | 2.14
YPDVLATEGFTSGRHYWEVEVGDK [C3D] | 1.9
YPNVLATEGFTSGRHYWEVEVGDK [C3N] | 1.7
YPIVLATEGFTSGRHYWEVEVGDK [C3I] | 2.41
YPHVLATEGFTSGRHYWEVEVGDK [C3H] | 1.98
YPRVLATEGFTSGRHYWEVEVGDK [C3R] | 2.99
YPWVLATEGFTSGRHYWEVEVGDK [C3W] | 1.97
YPCVLATEGFTSGRHYWEVEVGDA [K24A] | 1.28
YPCVLATEGFTSGRHYWEVEVGDI [K24I] | 2.65
YPCVLATEGFTSGRHYWEVEVGDY [K24Y] | 2.5

Variant | protein stability index
YPCVLATEGFTSGRHYWEVEVGDD [K24D] | 1.07
YPCVLATEGFTSGRHYWEVEVGDM [K24M] | 1.95
YPCVLATEGFTSGRHYWEVEVGDW [K24W] | 1.96
YPCVLATEGFTSGRHYWEVEVGDQ [K24Q] | 1.7
YPCVLATEGFTSGRHYWEVEVGDF [K24F] | 2.23
YPCVTATEGFTSGRHYWEVEVGDK [L5T] | 2.16
YPCVPATEGFTSGRHYWEVEVGDK [L5P] | 1.56
YPCVEATEGFTSGRHYWEVEVGDK [L5E] | 2.34
YPCVWATEGFTSGRHYWEVEVGDK [L5W] | 2.18
YPCVDATEGFTSGRHYWEVEVGDK [L5D] | 2.17
YPCVKATEGFTSGRHYWEVEVGDK [L5K] | 2.21
YPCVIATEGFTSGRHYWEVEVGDK [L5I] | 1.69
YPCVLATEGFTWGRHYWEVEVGDK [S12W] | 1.98
YPCVLATEGFTGGRHYWEVEVGDK [S12G] | 1.6
YPCVLATEGFTCGRHYWEVEVGDK [S12C] | 1.96
YPCVLATEGFTNGRHYWEVEVGDK [S12N] | 1.95
YPCVLATEGFTHGRHYWEVEVGDK [S12H] | 1.67
YPCVLATEGFTLGRHYWEVEVGDK [S12L] | 1.97
YPCVLATEGFTTGRHYWEVEVGDK [S12T] | 1.76
YPCVLATEGTTSGRHYWEVEVGDK [F10T] | 2.49
YPCVLATEGATSGRHYWEVEVGDK [F10A] | 1.55
YPCVLATEGDTSGRHYWEVEVGDK [F10D] | 2.45
YPCVLATEGITSGRHYWEVEVGDK [F10I] | 2.15
YPCVLATEGNTSGRHYWEVEVGDK [F10N] | 2.34

Variant | protein stability index
YPCVLATEGGTSGRHYWEVEVGDK [F10G] | 2.48
YPCVLATESFTSGRHYWEVEVGDK [G9S] | 1.81
YPCVLATEYFTSGRHYWEVEVGDK [G9Y] | 2.22
YPCVLATEWFTSGRHYWEVEVGDK [G9W] | 1.96
YPCVLATEVFTSGRHYWEVEVGDK [G9V] | 1.81
YPCVLATERFTSGRHYWEVEVGDK [G9R] | 2.38
MPCVLATEGFTSGRHYWEVEVGDK [Y1M] | 3.11
CPCVLATEGFTSGRHYWEVEVGDK [Y1C] | 2.7
KPCVLATEGFTSGRHYWEVEVGDK [Y1K] | 3.15
TPCVLATEGFTSGRHYWEVEVGDK [Y1T] | 3.78
HPCVLATEGFTSGRHYWEVEVGDK [Y1H] | 3.55
YPCVLATEGFTSGRHYWEVELGDK [V21L] | 1.57
YPCVLATEGFTSGRHYWEVEYGDK [V21Y] | 2.14
YPCVLATEGFTSGRHYWEVEIGDK [V21I] | 2.24
YPCVLATEGFTSGRHYWEVEDGDK [V21D] | 2.2
YPCVLATEGFTSGRHYWEVEMGDK [V21M] | 1.9
YPCVLATEGFTSGRHYWEVEQGDK [V21Q] | 1.87
YPCVLATEGFTSGRHYWEVEWGDK [V21W] | 1.92
YPCVLATEGFTSGRHYWEVENGDK [V21N] | 2.03
YPCVLATEGFTSGRHYWEVEGGDK [V21G] | 1.84
YPCVLATEGFTSGRHYCEVEVGDK [W17C] | 3.22
YPCVLATEGFTSGRHYYEVEVGDK [W17Y] | 2.24
YPCVLATEGFTSGRHYLEVEVGDK [W17L] | 2.97
